“Also recorded” adds a separate entry of the source.

The values below come from US9624506B2, “Glyphosate resistance enhancement” (Keygene N.V., priority 2011, dated 2017).

Data set [1] concerns E. coli. Description: Complementation assay in E. coli using A. thaliana EPSPS variants, growth in M9 medium with glyphosate. In kind it is cell-based. To be noted: 30 mM glyphosate; for glyphosate resistance (bacterial growth, OD600 over time): E. coli BL21 expressing A. thaliana EPSPS variant, M9 medium, 1 mM IPTG, 25° C. An excerpt: Each of these EPSPS variants was then cloned as a 1576 bps EcoRI-BamHI fragment into the vector pET302 NT HIS (Invitrogen, product K630203), fusing the EPSPS variants to a 6× His tag and allowing inducible protein expression with IPTG in E. coli. These constructs were introduced into the E. coli expression strain BL21 OAS (Invitrogen) for complementation assays.
E. coli is unable to grow in minimal M9 growth medium supplemented with glyphosate due to inhibition of the activity of the endogenous bacterial EPSP synthase AroA. Bacterial growth can be restored by complementation with a glyphosate resistant plant EPSPS gene. The E. coli strains containing the A. thaliana EPSPS variants were grown overnight in 10 ml LB medium containing 100 μg/ml carbenicillin (Duchefa). Strains were then diluted 4 fold in the same medium and allowed to grow for a further 4 hours. The […] of each culture was then measured and 1.5 ml culture was centrifuged at 4000 rpm for 10 minutes. The bacterial pellet was resuspended in 500 μl M9 medium (12.8 g/l Na2HPO4, 3.0 g/l KH2PO4, 0.5 g/l NaCl, 1.0 g/l NH4Cl, 2.0 g/l glucose, 0.4940 g/l MgSO4.7H2O, 15 mg/l CaCl2.2H2O, thiamine and 10 mg/l FeSO4.7H2O) used to inoculate 10 ml M9 medium containing 1 mM IPTG and 100 μg/ml carbenicillin and 30 mM glyphosate to an OD600 of 0.1. Identical cultures for each strain were also made lacking glyphosate and these were used to assess the growth of each strain without selection. The cultures were then grown at 25° C. and the OD600 was measured over time to assess bacterial growth (see FIG. 2).

The test system of data set [2] is Arabidopsis thaliana. Description: Glyphosate tolerance of transgenic Arabidopsis lines (average seedling weight +Gly/-Gly). In kind it is in vivo. To be noted: transgenic Arabidopsis lines overexpressing EPSPS gene; MS20 medium, 400 μM glyphosate, 4 weeks. The method, then:
The mutated Arabidopsis EPSPS genes tested in E. coli (see Example 1) were cloned into the binary vector pEARLEYGATE100 (The Plant J. 2006; 45:616-629). Briefly, the EPSPS genes were isolated as BamHI and SacI fragments comprising the complete ORF's and then inserted into the same unique sites present in the binary vector. […] This series of binary vectors were electroporated to the Agrobacterium tumefaciens strain GV2260 and bacterial colonies were selected on LB medium containing 100 μg/ml spectinomycin, using methods known to the skilled person.
Seeds of Arabidopsis thaliana (ecotype Colombia) were sown on soil and once germinated a single seedling was placed in a 5 cm×5 cm pot and allowed to grow until the first influorescence appeared. At this stage the plants were then transformed using the floral dip method. Briefly, the Agrobacterium strains were grown overnight in 50 ml liquid LB medium containing 100 μg/ml spectinomycin at 28° C. and then this culture was centrifuged at 4000 rpm for 10 minutes. The pellets were then resuspended in a 5% sucrose solution containing 0.02% Silwet (Lehle Seeds). The Arabidopsis plants were dipped into this culture and then incubated overnight in the dark at 25° C. The plants were then allowed to grow further in the greenhouse and after 7 days the dipping procedure was repeated. The plants were then allowed to set seed which was then germinated on soil. For selection of transformed Arabidopsis seedlings, a solution of glufosinate was prepared (0.1 mg/ml glufosinate ammonium+0.005% silwet) and sprayed on the seedlings. After 7 days the surviving seedlings were identified, grown to maturity and the seeds were collected.
We performed a segregation analysis on the seed of the transgenic lines to estimate the T-DNA copy number. Seed from each of the transgenic lines was sterilized with a 2% hypochlorite solution and washed with sterile water. Approximately 100 seeds per line were then placed on MS20 medium containing 0.1 mg/ml glufosinate ammonium and the number of surviving seedlings was scored after 20 days. The lines with a single T-DNA copy that segregated […] (resistance:sensitivity) to the glufosinate were selected for further phenotyping.
Seeds from the transgenic Arabidopsis lines were sterilized and then placed on MS20 medium containing 0.1 mg/ml glufosinate ammonium and +/−400 μM glyphosate and were grown for 4 weeks. After this period the seedlings were removed from the growth plates and the average seedling weight was determined. The degree of glyphosate resistance for each line was determined by dividing the average seedling weight in the presence of glyphosate by the average seedling weight found in the absence of glyphosate.

For data set [3] the following is noted: E. coli EPSPS, Eschenburg et al. 2002; cited from earlier work.

B1: P106L: A. thaliana EPSPS with Proline at position 106 changed into Leucine (SEQ ID NO:12) (protein, listed as Arabidopsis thaliana)
chain: MAQVSRICNGVQNPSLISNLSKSSQRKSPLSVSLKTQQHPRAYPISSSWGLKKSGMTLIGSELRPLKVMSSVSTAEKASEIVLQPIREISGLIKLPGSKSLSNRILLLAALSEGTTVVDNLLNSDDINYMLDALKRLGLNVETDSENNRAVVEGCGGIFPASIDSKSDIELYLGNAGTAMRLLTAAVTAAGGNASYVLDGVPRMRERPIGDLVVGLKQLGADVECTLGTNCPPVRVNANGGLPGGKVKLSGSISSQYLTALLMSAPLALGDVEIEIVDKLISVPYVEMTLKLMERFGVSVEHSDSWDRFFVKGGQKYKSPGNAYVEGDASSASYFLAGAAITGETVTVEGCGTTSLQGDVKFAEVLEKMGCKVSWTENSVTVTGPPRDAFGMRHLRAIDVNMNKMPDVAMTLAVVALFADGPTTIRDVASWRVKETERMIAICTELRKLGATVEEGSDYCVITPPKKVKTAEIDTYDDHRMAMAFSLAACADVPITINDPGCTRKTFPDYFQVLERITKH
For the molecule B1, the “glyphosate resistance (bacterial growth, OD600 over time)” value in data set [1] is on record as “good level of resistance”. The “glyphosate resistance (ratio of average seedling weight +Gly/-Gly)” value in data set [2] is reported as “reasonable resistance”.

B2: N44D: A. thaliana EPSPS with Asparagine at position 44 changed into Aspartic Acid (SEQ ID NO:11) (protein, listed as Arabidopsis thaliana)
chain: MAQVSRICNGVQNPSLISNLSKSSQRKSPLSVSLKTQQHPRAYPISSSWGLKKSGMTLIGSELRPLKVMSSVSTAEKASEIVLQPIREISGLIKLPGSKSLSNRILLLAALSEGTTVVDDLLNSDDINYMLDALKRLGLNVETDSENNRAVVEGCGGIFPASIDSKSDIELYLGNAGTAMRPLTAAVTAAGGNASYVLDGVPRMRERPIGDLVVGLKQLGADVECTLGTNCPPVRVNANGGLPGGKVKLSGSISSQYLTALLMSAPLALGDVEIEIVDKLISVPYVEMTLKLMERFGVSVEHSDSWDRFFVKGGQKYKSPGNAYVEGDASSASYFLAGAAITGETVTVEGCGTTSLQGDVKFAEVLEKMGCKVSWTENSVTVTGPPRDAFGMRHLRAIDVNMNKMPDVAMTLAVVALFADGPTTIRDVASWRVKETERMIAICTELRKLGATVEEGSDYCVITPPKKVKTAEIDTYDDHRMAMAFSLAACADVPITINDPGCTRKTFPDYFQVLERITKH
With B2, the “glyphosate resistance (bacterial growth, OD600 over time)” value in data set [1] is listed as “some resistance to glyphosate; also recorded: provides tolerance to glyphosate”. Also, the “glyphosate resistance (ratio of average seedling weight +Gly/-Gly)” value in data set [2] is recorded as “lead to glyphosate resistance”.

B3: wild type (WT): Arabidopsis thaliana EPSPS (At2g45300), unmutated, SEQ ID NO:9/10 (protein, listed as Arabidopsis thaliana)
chain: MAQVSRICNGVQNPSLISNLSKSSQRKSPLSVSLKTQQHPRAYPISSSWGLKKSGMTLIGSELRPLKVMSSVSTAEKASEIVLQPIREISGLIKLPGSKSLSNRILLLAALSEGTTVVDNLLNSDDINYMLDALKRLGLNVETDSENNRAVVEGCGGIFPASIDSKSDIELYLGNAGTAMRPLTAAVTAAGGNASYVLDGVPRMRERPIGDLVVGLKQLGADVECTLGTNCPPVRVNANGGLPGGKVKLSGSISSQYLTALLMSAPLALGDVEIEIVDKLISVPYVEMTLKLMERFGVSVEHSDSWDRFFVKGGQKYKSPGNAYVEGDASSASYFLAGAAITGETVTVEGCGTTSLQGDVKFAEVLEKMGCKVSWTENSVTVTGPPRDAFGMRHLRAIDVNMNKMPDVAMTLAVVALFADGPTTIRDVASWRVKETERMIAICTELRKLGATVEEGSDYCVITPPKKVKTAEIDTYDDHRMAMAFSLAACADVPITINDPGCTRKTFPDYFQVLERITKH
Regarding B3, the “glyphosate resistance (bacterial growth, OD600 over time)” value in data set [1] is “able to complement bacterial growth at later time points”.

B4: N44D+S179N: A. thaliana EPSPS double mutant N44D and S179N (SEQ ID NO:16) (protein, listed as Arabidopsis thaliana)
chain: MAQVSRICNGVQNPSLISNLSKSSQRKSPLSVSLKTQQHPRAYPISSSWGLKKSGMTLIGSELRPLKVMSSVSTAEKASEIVLQPIREISGLIKLPGSKSLSNRILLLAALSEGTTVVDDLLNSDDINYMLDALKRLGLNVETDSENNRAVVEGCGGIFPASIDSKSDIELYLGNAGTAMRPLTAAVTAAGGNASYVLDGVPRMRERPIGDLVVGLKQLGADVECTLGTNCPPVRVNANGGLPGGKVKLSGSISNQYLTALLMSAPLALGDVEIEIVDKLISVPYVEMTLKLMERFGVSVEHSDSWDRFFVKGGQKYKSPGNAYVEGDASSASYFLAGAAITGETVTVEGCGTTSLQGDVKFAEVLEKMGCKVSWTENSVTVTGPPRDAFGMRHLRAIDVNMNKMPDVAMTLAVVALFADGPTTIRDVASWRVKETERMIAICTELRKLGATVEEGSDYCVITPPKKVKTAEIDTYDDHRMAMAFSLAACADVPITINDPGCTRKTFPDYFQVLERITKH
B4: the “glyphosate resistance (ratio of average seedling weight +Gly/-Gly)” value in data set [2] is reported as “confers resistance”.

B5: G101A: EPSPS with Glycine at position 101 changed into Alanine (position 96 in E. coli; SEQ ID NO:17) (protein, listed as Arabidopsis thaliana)
chain: MAQVSRICNGVQNPSLISNLSKSSQRKSPLSVSLKTQQHPRAYPISSSWGLKKSGMTLIGSELRPLKVMSSVSTAEKASEIVLQPIREISGLIKLPGSKSLSNRILLLAALSEGTTVVDNLLNSDDINYMLDALKRLGLNVETDSENNRAVVEGCGGIFPASIDSKSDIELYLGNAATAMRPLTAAVTAAGGNASYVLDGVPRMRERPIGDLVVGLKQLGADVECTLGTNCPPVRVNANGGLPGGKVKLSGSISSQYLTALLMSAPLALGDVEIEIVDKLISVPYVEMTLKLMERFGVSVEHSDSWDRFFVKGGQKYKSPGNAYVEGDASSASYFLAGAAITGETVTVEGCGTTSLQGDVKFAEVLEKMGCKVSWTENSVTVTGPPRDAFGMRHLRAIDVNMNKMPDVAMTLAVVALFADGPTTIRDVASWRVKETERMIAICTELRKLGATVEEGSDYCVITPPKKVKTAEIDTYDDHRMAMAFSLAACADVPITINDPGCTRKTFPDYFQVLERITKH
As to B5, the “Km of PEP” value in data set [3] is reported as “increase”.

B6: N44D+P106L: A. thaliana EPSPS double mutant N44D and P106L (SEQ ID NO:13) (protein, listed as Arabidopsis thaliana)
chain: MAQVSRICNGVQNPSLISNLSKSSQRKSPLSVSLKTQQHPRAYPISSSWGLKKSGMTLIGSELRPLKVMSSVSTAEKASEIVLQPIREISGLIKLPGSKSLSNRILLLAALSEGTTVVDDLLNSDDINYMLDALKRLGLNVETDSENNRAVVEGCGGIFPASIDSKSDIELYLGNAGTAMRLLTAAVTAAGGNASYVLDGVPRMRERPIGDLVVGLKQLGADVECTLGTNCPPVRVNANGGLPGGKVKLSGSISSQYLTALLMSAPLALGDVEIEIVDKLISVPYVEMTLKLMERFGVSVEHSDSWDRFFVKGGQKYKSPGNAYVEGDASSASYFLAGAAITGETVTVEGCGTTSLQGDVKFAEVLEKMGCKVSWTENSVTVTGPPRDAFGMRHLRAIDVNMNKMPDVAMTLAVVALFADGPTTIRDVASWRVKETERMIAICTELRKLGATVEEGSDYCVITPPKKVKTAEIDTYDDHRMAMAFSLAACADVPITINDPGCTRKTFPDYFQVLERITKH
As for B6, the “glyphosate resistance (bacterial growth, OD600 over time)” value in data set [1] was “strongly enhanced”. Also, the “enhancement of resistance levels” value in data set [1] (N44D combined with P106L, after 18 hours of growth) is 2.5 fold. The “glyphosate resistance (ratio of average seedling weight +Gly/-Gly)” value in data set [2] is listed as “enhanced”.
